# Substitutions are numbered along the chain they refer to.
# T1: Mcm10-ID wild type (Xenopus laevis, UniProt Q5EAW4 230-427)
# T1 sequence: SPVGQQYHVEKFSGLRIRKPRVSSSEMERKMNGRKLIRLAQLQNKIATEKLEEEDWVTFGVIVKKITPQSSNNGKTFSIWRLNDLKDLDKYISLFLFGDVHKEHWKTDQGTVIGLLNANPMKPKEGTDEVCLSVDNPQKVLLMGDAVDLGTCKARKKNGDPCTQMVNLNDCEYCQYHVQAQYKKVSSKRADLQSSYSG
# T2: Mcm10-ID K385E/K386E (Xenopus laevis, UniProt Q5EAW4 230-427, K385E;K386E)
# T2 sequence: T1 sequence with K156E, K157E
# T3: Mcm10-ID K412E/K413E (Xenopus laevis, UniProt Q5EAW4 230-427, K412E;K413E)
# T3 sequence: T1 sequence with K183E, K184E
# T4: Mcm10-ID K417E/R418E (Xenopus laevis, UniProt Q5EAW4 230-427, K417E;R418E)
# T4 sequence: T1 sequence with K188E, R189E
# T5: Mcm10-ID K293A (Xenopus laevis, UniProt Q5EAW4 230-427, K293A)
# T5 sequence: T1 sequence with K64A
# T6: Mcm10-ID F326A (Xenopus laevis, UniProt Q5EAW4 230-427, F326A)
# T6 sequence: T1 sequence with F97A
# Columns and labels:
# Mcm10-ID wild type [1] = target: T1, Mcm10-ID wild type; assay: NMR
# Mcm10-ID K385E/K386E = target: T2, Mcm10-ID K385E/K386E; assay: fluorescence anisotropy
# Mcm10-ID K412E/K413E = target: T3, Mcm10-ID K412E/K413E; assay: fluorescence anisotropy
# Mcm10-ID K417E/R418E = target: T4, Mcm10-ID K417E/R418E; assay: fluorescence anisotropy
# Mcm10-ID K293A = target: T5, Mcm10-ID K293A; assay: fluorescence anisotropy
# Mcm10-ID F326A = target: T6, Mcm10-ID F326A; assay: fluorescence anisotropy
# Mcm10-ID wild type [2] = target: T1, Mcm10-ID wild type; assay: fluorescence anisotropy
binder,measurement,setting,value
GGCGCATTGTCGCAA (ssDNA) [15mer ssDNA (NMR)],binding result,Mcm10-ID wild type [1],binds
ATGGTAGGCAACCATGTAGTAGTCA (ssDNA) [25mer ssDNA],binding signal,Mcm10-ID K385E/K386E,10 fold reduction in affinity vs wild type
same,binding result,Mcm10-ID K412E/K413E,binds
same,binding result,Mcm10-ID K417E/R418E,binds
same,binding signal,Mcm10-ID K293A,5 fold reduction in affinity vs wild type
same,binding result,Mcm10-ID F326A,binds
ATGGTAGGCA (ssDNA) [10mer from 5' end of 25mer],binding result,Mcm10-ID wild type [2],binds

# Source: PMC2636851
